What was measured:
S. cerevisiae RS = molecular target: T1, S. cerevisiae RS (Saccharomyces cerevisiae, UniProt P38145); conditions: 37° C.; cited from earlier work
T1 sequence (P38145 1-238): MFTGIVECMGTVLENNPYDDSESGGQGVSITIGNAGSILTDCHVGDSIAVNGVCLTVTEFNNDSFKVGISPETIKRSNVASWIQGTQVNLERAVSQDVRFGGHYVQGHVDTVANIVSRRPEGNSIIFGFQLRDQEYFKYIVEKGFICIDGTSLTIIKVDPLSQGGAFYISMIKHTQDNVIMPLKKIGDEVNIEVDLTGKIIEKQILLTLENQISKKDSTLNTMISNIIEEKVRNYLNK

E. coli LS = E. coli LS (Escherichia coli, UniProt P61714); conditions: 37° C.; cited from earlier work
yeast LS = yeast LS (Saccharomyces cerevisiae, UniProt P50861); conditions: 37° C.; cited from earlier work
[1] = system: purified recombinant spinach RS; experiment: Riboflavin synthase assay (riboflavin formation from DMRL, 470 nm); assay type: biochemical, spinach (Spinacea oleracea); conditions: 25° C., based on protomer
Procedure: Riboflavin synthase assays were run using 1-mL reaction mixtures containing 0.1 mM DMRL in 50 mM Tris-Cl (pH 7.5) at 25° C. Reactions were initiated by the addition of purified recombinant spinach RS and initial rates of the reactions were measured continuously at 470 nm. A molar extinction coefficient (ε) of 9500 at 470 nm was used to calculate the formation of riboflavin (Plaut, G. W. E. and Harvey, R. A., Methods in Enzymology (McCormick, D. B. and Wright L. D., eds.) vol. 18, part B, pp. 515-538, Academic Press, N.Y. (1971)).

B. subtilis LS = molecular target: T2, B. subtilis LS (Bacillus subtilis, UniProt P11998); conditions: 37° C.; cited from earlier work
T2 sequence (P11998 whole entry, looked up): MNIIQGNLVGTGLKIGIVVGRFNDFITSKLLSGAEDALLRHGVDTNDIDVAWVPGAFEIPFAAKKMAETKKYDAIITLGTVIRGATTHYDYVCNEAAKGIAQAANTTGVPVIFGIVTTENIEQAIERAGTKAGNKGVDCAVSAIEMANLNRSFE

B. subtilis RS = molecular target: T3, B. subtilis RS (Bacillus subtilis, UniProt P16440); conditions: 37° C.; cited from earlier work
T3 sequence (P16440 whole entry, looked up): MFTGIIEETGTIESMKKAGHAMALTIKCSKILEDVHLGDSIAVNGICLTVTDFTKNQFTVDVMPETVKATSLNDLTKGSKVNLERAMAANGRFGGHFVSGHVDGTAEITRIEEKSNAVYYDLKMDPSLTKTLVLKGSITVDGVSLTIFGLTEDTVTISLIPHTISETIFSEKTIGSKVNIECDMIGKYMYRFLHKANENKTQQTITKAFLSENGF

B1: S. cerevisiae RS: yeast riboflavin synthase, literature comparison (Santos et al.) (protein, UniProt P38145 1-238, looked up)
Riboflavin synthase: MFTGIVECMGTVLENNPYDDSESGGQGVSITIGNAGSILTDCHVGDSIAVNGVCLTVTEFNNDSFKVGISPETIKRSNVASWIQGTQVNLERAVSQDVRFGGHYVQGHVDTVANIVSRRPEGNSIIFGFQLRDQEYFKYIVEKGFICIDGTSLTIIKVDPLSQGGAFYISMIKHTQDNVIMPLKKIGDEVNIEVDLTGKIIEKQILLTLENQISKKDSTLNTMISNIIEEKVRNYLNK
For B1, the reported turnover number (S. cerevisiae RS) is given as 0.13 s⁻¹.

B2: E. coli LS: purified E. coli lumazine synthase, literature comparison (protein, UniProt P61714 1-156, looked up)
6,7-dimethyl-8-ribityllumazine …: MNIIEANVATPDARVAITIARFNNFINDSLLEGAIDALKRIGQVKDENITVVWVPGAYELPLAAGALAKTGKYDAVIALGTVIRGGTAHFEYVAGGASNGLAHVAQDSEIPVAFGVLTTESIEQAIERAGTKAGNKGAEAALTALEMINVLKAIKA
For B2, the reported turnover number (E. coli LS) is listed as 0.06 s⁻¹.

B3: yeast LS: purified yeast lumazine synthase, literature comparison (protein, UniProt P50861 1-169, looked up)
6,7-dimethyl-8-ribityllumazine …: MAVKGLGKPDQVYDGSKIRVGIIHARWNRVIIDALVKGAIERMASLGVEENNIIIETVPGSYELPWGTKRFVDRQAKLGKPLDVVIPIGVLIKGSTMHFEYISDSTTHALMNLQEKVDMPVIFGLLTCMTEEQALARAGIDEAHSMHNHGEDWGAAAVEMAVKFGKNAF
In the case of B3, the reported turnover number (yeast LS) is listed as 0.06 s⁻¹.

B4: recombinant spinach RS: purified recombinant mature spinach riboflavin synthase expressed in E. coli, without transit peptide (SEQ ID NO:8) (protein)
chain: MFTGIVEEIGRVKQMGYGEDGGFQLKVVGDIVLKDVNLGDSIAVNGTCLTVTEFDTKASEFTLGIAPETLRKTALMDLEPGSVVNLERALLPSTRMGGHFVQGHVDGTGEIVSLVEEGDSLWVKIKTSPEILRYIVPKGFIAIDGTSLTVVDVFDQELCFNIMLVAYTQQNVVIPLKKVGQKVNLEVDILGKYVERLLSSSGVLDPTKFT
With B4 the turnover number [1] was “approximately 0.08 /sec”.

B5: B. subtilis LS: purified B. subtilis lumazine synthase, literature comparison (protein, UniProt P11998 1-154, looked up)
6,7-dimethyl-8-ribityllumazine …: MNIIQGNLVGTGLKIGIVVGRFNDFITSKLLSGAEDALLRHGVDTNDIDVAWVPGAFEIPFAAKKMAETKKYDAIITLGTVIRGATTHYDYVCNEAAKGIAQAANTTGVPVIFGIVTTENIEQAIERAGTKAGNKGVDCAVSAIEMANLNRSFE
In the case of B5, the reported turnover number (B. subtilis LS) is listed as 0.06 s⁻¹.

B6: B. subtilis RS: B. subtilis riboflavin synthase, literature comparison (Bacher et al.) (protein, UniProt P16440 1-215, looked up)
Riboflavin synthase: MFTGIIEETGTIESMKKAGHAMALTIKCSKILEDVHLGDSIAVNGICLTVTDFTKNQFTVDVMPETVKATSLNDLTKGSKVNLERAMAANGRFGGHFVSGHVDGTAEITRIEEKSNAVYYDLKMDPSLTKTLVLKGSITVDGVSLTIFGLTEDTVTISLIPHTISETIFSEKTIGSKVNIECDMIGKYMYRFLHKANENKTQQTITKAFLSENGF
For B6, the reported turnover number (B. subtilis RS) is given as 0.33 s⁻¹.

From US6682891B2, “Methods of identifying nucleic acid sequences encoding plant riboflavin synthase enzymes” (E. I. du Pont de Nemours and Company, priority 1997, dated 2004)
